From patent CN117264062A (SHANGHAI HRAIN BIOTECHNOLOGY CO LTD, dated 2023)

T1: 重组人Trop2-avi-his抗原蛋白 (recombinant human Trop2 extracellular domain with C-terminal avi-tag and 6×his-tag) (human, UniProt P09758 27-274)
T1 construct: The protein was coated unbiotinylated on the ELISA plate; A form biotinylated at the avi-tag was used for panning and for CAR staining; also called 重组人Trop2蛋白; Trop2蛋白
T1 sequence: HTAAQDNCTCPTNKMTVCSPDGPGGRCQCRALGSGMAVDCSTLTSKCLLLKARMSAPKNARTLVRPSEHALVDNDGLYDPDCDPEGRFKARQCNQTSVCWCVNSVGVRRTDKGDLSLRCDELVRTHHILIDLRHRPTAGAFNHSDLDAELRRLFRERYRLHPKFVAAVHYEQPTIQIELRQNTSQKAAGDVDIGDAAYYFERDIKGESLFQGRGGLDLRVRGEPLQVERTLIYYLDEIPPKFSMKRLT

B1: L2C8 anti-human Trop2 scFv (scFv, V domains shown)
VH: EVQLVESGGALVQRGGSLRLSCSASGFSVRNNYITWVRQAPGKGLEWVAIVFPGGSSYHADSVKGRFTISRDLSKNSVYLEMNSLREDDTGVYFCARDSGSPLWRGHFQYWGQGTTVTVSS
VL: QSVLTQPPSVSGAPGQRVTISCTGSSANIGAGYDVHWYQQLPGTAPKLLIYDNNKRPSGIPDRFSGSNSGTSATLGITGLQTGDEADYYCGTWDTSLSAWVFGGGTRLTVL
notes: Tested as an scFv in a periplasmic extract of TG1 (pComb3sc phagemid) and detected with anti-HA HRP
B2: L3G5 anti-human Trop2 scFv (scFv, V domains shown)
VH: QLQLQESGPGLLKPSETLSLICTVSGGSISSHYWSWIRQTPGKGLEWIGWIHSSGITNYNPSLMGRVTMSVDTSKNQFPLKVNSVTAADTAVYYCARGLRLTDDAFDIWGQGTMVTVSS
VL: QSALTQPASVSGSPGQSITISCTGTSSDVGGYNYVSWYQQHPGKAPKLMIHDVSNRPSGVSNRFFGSKSGNTASLTISGLQAEDEADYYCSSYTSSNTLAFGGGTKLTVL
notes: as for B1
B3: L2C9 anti-human Trop2 scFv (scFv, V domains shown)
VH: EVQLLESGGGVVQPGMSLRVSCAASGFTFSNYGMHWVRQAPGKGLEWVGIIWSDGTYTYYGDSVQGRFTISRDNSENTLHLQMNSLRAEDTAVYYCAKSLTPLGGSFRIGDWGQGTLVTVSS
VL: QSVLTQPPSVSGAPGQRVTISCTGSSSNIGAGYDVHWYQQLPGTAPKLLIYDNTNRPSGVPDRFSGSKSGTSASLAITGLQADDEGDYYCQSYDSRLNALVFGGGTKLTVL
notes: as for B1
B4: K2F5 anti-human Trop2 scFv (scFv, V domains shown)
VH: QVQLVQSGAEVKKPGESLTISCKSSGDNFSTNWIGWVRQMPGKGLEWMGIIYPGDSDSRYSPSFEGQVTISADKSISTAYLQWSSLKASDTAMYYCARYQGSTTPFDYWGQGTTVTVSS
VL: not shown
notes: as for B1

Each binder was assayed against T1, 重组人Trop2-avi-his抗原蛋白 (recombinant human …) (assay: ELISA: recombinant human Trop2 coated at 100 ng/well, scFv periplasmic extract, anti-HA HRP detection, OD450).

Row | Binder | binding result
1 | B1 | binds
2 | B2 | binds
3 | B3 | binds
4 | B4 | binds
